Values of other authors as cited in article PMC11105488.

Experiments:
FGFR1c (Homo sapiens) = FGFR1c (Homo sapiens) (UniProt P11362)
FGFR2c (Homo sapiens) = FGFR2c (Homo sapiens) (UniProt P21802)
FGFR4 (Homo sapiens) = FGFR4 (Homo sapiens) (UniProt P22455)
Sequence of UniProt P22455 (P22455 22-369): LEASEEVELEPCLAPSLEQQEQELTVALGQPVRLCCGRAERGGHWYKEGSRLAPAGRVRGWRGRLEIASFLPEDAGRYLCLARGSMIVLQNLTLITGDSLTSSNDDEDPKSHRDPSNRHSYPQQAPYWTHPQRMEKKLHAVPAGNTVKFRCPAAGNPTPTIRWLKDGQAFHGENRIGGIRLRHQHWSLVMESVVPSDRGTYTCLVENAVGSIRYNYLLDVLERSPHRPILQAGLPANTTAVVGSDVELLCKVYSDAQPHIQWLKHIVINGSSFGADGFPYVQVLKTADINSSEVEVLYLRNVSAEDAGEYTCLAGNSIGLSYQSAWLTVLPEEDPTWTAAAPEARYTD

Sequence of UniProt P11362 (P11362 22-376): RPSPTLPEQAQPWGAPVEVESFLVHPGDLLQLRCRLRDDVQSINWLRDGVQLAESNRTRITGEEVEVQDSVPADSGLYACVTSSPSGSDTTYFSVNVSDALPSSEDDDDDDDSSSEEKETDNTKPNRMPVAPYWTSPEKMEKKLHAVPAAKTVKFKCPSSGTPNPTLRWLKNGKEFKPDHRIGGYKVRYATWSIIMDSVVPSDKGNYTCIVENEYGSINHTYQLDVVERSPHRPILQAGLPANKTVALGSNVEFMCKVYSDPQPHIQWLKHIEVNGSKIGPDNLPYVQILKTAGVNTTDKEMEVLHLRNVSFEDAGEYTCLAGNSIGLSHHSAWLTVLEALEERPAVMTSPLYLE
Sequence of UniProt P21802 (P21802 22-377): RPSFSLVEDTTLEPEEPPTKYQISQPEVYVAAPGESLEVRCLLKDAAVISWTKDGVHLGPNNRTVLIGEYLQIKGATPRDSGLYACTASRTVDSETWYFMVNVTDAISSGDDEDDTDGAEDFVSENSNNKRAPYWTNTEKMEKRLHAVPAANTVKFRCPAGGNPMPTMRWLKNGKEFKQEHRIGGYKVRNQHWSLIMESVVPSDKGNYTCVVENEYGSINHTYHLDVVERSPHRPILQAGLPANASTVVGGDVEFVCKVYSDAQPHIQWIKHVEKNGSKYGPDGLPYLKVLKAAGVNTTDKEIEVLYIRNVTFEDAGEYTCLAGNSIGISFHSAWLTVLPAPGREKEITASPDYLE

Kd (FGFR1c (Homo sapiens)): 700 nM
Kd (FGFR2c (Homo sapiens)): 200 nM
Kd (FGFR4 (Homo sapiens)): 200 nM
Substance: FGF23 (from UniProt Q9GZV9)
